Measurements from patent publication US20210145976A1.
Residue numbers refer to the chain shown, from its start.

B1: SEQ ID NO 280 (designed binder)
chain: MLPAPKNLVVRXVTEDSARLSWTAPDAAFDSFEIEYDEPYRGGEAIVLTVPGSERSYDLTSLKPGTEYPVSIGGVKGGITSDPLSAIFTT
modifications: X: residue not identified in the source; also: C-terminal poly-His tag, letters not given here
B2: SEQ ID NO 292 (designed binder)
chain: MLPAPKNLVVSRVTEDSARLSWTAPDAAFDSFDIAYWELTPSGEAIELLVPGSERSYDLTGLKPGTEYRVDIIGVKGGFISEPLGATFTT
B3: SEQ ID NO 294 (designed binder)
chain: MLPAPKNLVVSRVTEDSARLSWTAPDAAFDSFSIIYSEWNVTGEAIVLTVPGSERSYDLTGLKPGTEYDVWIEGVKGGGMSKPLSAISTT
B4: SEQ ID NO 295 (designed binder)
chain: MLPAPKNLVVSRVTEDSARLSWTAPDAAFDSFFIGYLEPIPSGEAIVLTVPGSERSYDLTGLKPGTEYPVVIQGVKGGHPSQPLSAIFTT
B5: SEQ ID NO 56 (designed binder)
chain: MLPAPKNLVVSRVTEDSARLSWTAPDAAFDSFVIEYFEALEGGEAIVLTVPGSERSYDLTGLKPGTEYFVGIYGVKGGPLSKPLSAIFTT
B6: SEQ ID NO 297 (designed binder)
chain: MLPAPKNLVVSRVTEDSARLSWTAPDAAFDSFLIPYAETSPSGEAITLFVPGSERSYDLTGLKPGTEYNVVIQGVKGGRPSNPLVAASTT
B7: SEQ ID NO 298 (designed binder)
chain: MLPAPKNLVVSRVTEDSARLSWTAPDAAFDSFPIAYAEPRPDGEAIVLTVPGSERSYDLTGLKPGTEYSVLIHGVKGGLLSSPLSAISTT
B8: SEQ ID NO 299 (designed binder)
chain: B5 chain with V33L, F37W, A39S, L40V, E41G, G42Y, F69W, P79Y, L80Y, K82R
B9: SEQ ID NO 300 (designed binder)
chain: B4 chain with I40Q, S42P, P69N, V71T, Q73H, H79T, Q82M
B10: SEQ ID NO 301 (designed binder)
chain: B1 chain with R11S, X12R
B11: SEQ ID NO 302 (designed binder)
chain: MLPAPKNLVVSRVTEDSARLSWTAPDAAFDSFDIYYPEYYDRGEAIVLTVPGSERSYDLTGLKPGTEYTVYIDGVKGGGGSGPLSAIFTT
B12: SEQ ID NO 303 (designed binder)
chain: B4 chain with G35A, L37F, P39F, I40A, P41N, S42P, P69K, H79T, Q82E
B13: SEQ ID NO 305 (designed binder)
chain: MLPAPKNLVVSRVTEDSARLSWTAPDAAFDSFEIDYDEPFVYGEAIVLTVPGSERSYDLTGLKPGTEYRVFIFGVKGGNGSWPLSAIFTT
B14: SEQ ID NO 306 (designed binder)
chain: B5 chain with V33Y, A39T, L40Q, E41G, G42Y, F69Y, G71A, P79Y, K82R
B15: SEQ ID NO 57 (designed binder)
chain: MLPAPKNLVVSRVTEDSARLSWTAPDAAFDSFSIKYLEWWQDGEAIVLTVPGSERSYDLTGLKPGTEYYVHIAGVKGGYRSYPLSAIFTT
B16: SEQ ID NO 307 (designed binder)
chain: MLPAPKNLVVSRVTEDSARLSWTAPDAAFDSFPITYSEPAHYGEAIVLTVPGSERSYDLTGLKPGTEYHVGIMGVKGGVFSSPLSAIFTT
B17: SEQ ID NO 308 (designed binder)
chain: MLPAPKNLVVSEVTEDSARLSWQGVARAFDSFLITYREQIFAGEVIVLTVPGSERSYDLTGLKPGTEYPVWIQGVKGGSPSAPLSAISTT
B18: SEQ ID NO 309 (designed binder)
chain: B15 chain with S33I, K35D, W39L, W40D, D42E, Y69A, H71Y, A73F, R80P, Y82T
B19: SEQ ID NO 34 (designed binder)
chain: MLPAPKNLVVSRVTEDSARLSWTAPDAAFDSFAITYIEWWDVGEAIGLKVPGSERSYDLTGLKPGTEYRVHIQGVKGGNNSYPLDALFTT
B20: SEQ ID NO 60 (designed binder)
chain: MLPAPKNLVVSRVTEDSARLSWTAPDAAFDSFTIWYAEAIGHGEAIVLTVPGSERSYDLTGLKPGTEYWVDIWGVKGGQQSKPLSAIFTT
B21: SEQ ID NO 61 (designed binder)
chain: MLPAPKNLVVSRVTEDSARLSWRVESRTFDSFLIQYQESEKVGEAIVLTVPGSERSYDLTGLKPGTEYTVSIYGVVWDTRDNPISNPLSAIFTT
B22: SEQ ID NO 81 (designed binder)
chain: B5 chain with F37R, A39G, L40A, E41W, G42Y, F69A, G71Y, Y73P, L80R, K82F
B23: SEQ ID NO 82 (designed binder)
chain: MLPAPKNLVVSRVTEDSARLSWTAPDAAFDSFAIAYVEWWKLGEAIVLTVPGSERSYDLTGLKPGTEYVVPIPGVKGGGHSSPLSAIFTT

The binders below were run against T1, recombinant biotinylated CD71 extracellular domain (Sino Biologics) with an N-terminal 6His tag (human), P02786 (assay: screening ELISA, ratio).
T1 sequence (P02786 other isoform, or with tags, fused parts or gaps): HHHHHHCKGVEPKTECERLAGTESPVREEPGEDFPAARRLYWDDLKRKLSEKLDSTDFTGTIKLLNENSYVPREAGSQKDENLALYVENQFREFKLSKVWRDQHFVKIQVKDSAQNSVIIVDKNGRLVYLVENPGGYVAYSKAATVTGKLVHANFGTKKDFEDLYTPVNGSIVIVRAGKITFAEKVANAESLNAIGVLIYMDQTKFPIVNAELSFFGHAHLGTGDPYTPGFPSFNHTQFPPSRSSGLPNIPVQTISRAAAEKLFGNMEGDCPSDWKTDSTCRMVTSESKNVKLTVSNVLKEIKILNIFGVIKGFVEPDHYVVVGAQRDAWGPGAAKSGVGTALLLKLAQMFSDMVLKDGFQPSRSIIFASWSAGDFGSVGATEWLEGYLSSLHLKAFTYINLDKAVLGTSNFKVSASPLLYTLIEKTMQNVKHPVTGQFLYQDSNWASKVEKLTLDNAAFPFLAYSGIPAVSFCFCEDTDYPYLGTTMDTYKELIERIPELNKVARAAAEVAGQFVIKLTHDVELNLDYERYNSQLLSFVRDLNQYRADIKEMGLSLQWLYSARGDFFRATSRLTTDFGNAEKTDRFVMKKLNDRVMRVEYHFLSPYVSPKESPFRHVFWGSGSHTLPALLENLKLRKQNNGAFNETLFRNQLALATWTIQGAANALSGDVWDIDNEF

Row | Binder | hCD71:HSA
1 | B1 | 21

The binders below were run against human serum albumin (human) (UniProt P02768) (assay: screening ELISA).
human serum albumin (human), sequence (P02768 25-609 limits assumed): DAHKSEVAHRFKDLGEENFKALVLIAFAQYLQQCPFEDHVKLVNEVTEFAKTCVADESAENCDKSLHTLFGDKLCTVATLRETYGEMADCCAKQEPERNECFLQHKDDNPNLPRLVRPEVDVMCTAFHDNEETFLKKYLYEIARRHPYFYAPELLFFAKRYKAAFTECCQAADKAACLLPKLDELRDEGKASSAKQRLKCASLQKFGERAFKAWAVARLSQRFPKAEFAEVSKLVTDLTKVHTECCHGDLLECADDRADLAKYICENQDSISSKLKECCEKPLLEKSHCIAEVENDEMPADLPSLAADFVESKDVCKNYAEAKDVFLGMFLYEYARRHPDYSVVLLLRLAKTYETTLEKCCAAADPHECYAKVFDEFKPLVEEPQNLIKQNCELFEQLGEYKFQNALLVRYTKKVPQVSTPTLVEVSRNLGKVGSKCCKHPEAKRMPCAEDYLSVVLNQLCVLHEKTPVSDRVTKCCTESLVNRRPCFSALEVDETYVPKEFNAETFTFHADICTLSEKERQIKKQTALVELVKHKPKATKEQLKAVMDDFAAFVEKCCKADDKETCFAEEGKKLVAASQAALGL

Row | Binder | HSA
2 | B2 | 8850
3 | B3 | 8250
4 | B4 | 3800
5 | B5 | 7520
6 | B6 | 52600
7 | B7 | 34000
8 | B8 | 2200
9 | B9 | 4050
10 | B10 | 12000
11 | B11 | 21200
12 | B12 | 2650
13 | B13 | 25000
14 | B14 | 2250
15 | B15 | 16900
16 | B16 | 4350
17 | B17 | 12300
18 | B18 | 2850
19 | B19 | 25900
20 | B20 | 6480
21 | B21 | 10600
22 | B22 | 28600
23 | B23 | 18900

Each binder was assayed against T1, recombinant biotinylated CD71 … (assay: screening ELISA).

Row | Binder | hCD71
24 | B1 | 446000
